Experimental data published in patent publication US20190330277A1.

Target: bRSV ATue51908 postF (bovine respiratory syncytial virus, strain ATue51908), P22167
Assay: biolayer interferometry (Octet), variant on Ni-NTA tip, Fab in solution
Settings: remark: other sources report otherwise

B1: MPE8 Fab (Fab, V domains shown)
VH: EVQLVESGGGLVKPGGSLRLSCAASGFTFSSYSMNWVRQAPGKGLEWVSSISASSSYSDYADSAKGRFTISRDNAKTSLFLQMNSLRAEDTAIYFCARARATGYSSITPYFDIWGQGTLVTVSS
VL: QSVVTQTPSVSGAPGQRVTISCTGSSSNIGAGYDVHWYQQLPGTAPKLLIYDNNNRPSGVPDRFSASKSGTSASLAITGLQAEDEADYYCQSYDRNLSGVFGTGTKVTVL
Kd: > 1000 nM
